{"source": "patent US20100183645A1", "about": "“ACTIVE OR PASSIVE IMMUNIZATION AGAINST PROAPOPTOTIC NEUROTROPHINS FOR THE TREATMENT AND/OR PREVENTION OF NEURODEGENERATIVE DISEASES” (INSTITUT PASTEUR, priority 2003, published 2010)", "origin": "cited, not measured here", "target": "T1, p75NTR (Homo sapiens, UniProt P08138)", "T1 sequence (P08138 29-427)": "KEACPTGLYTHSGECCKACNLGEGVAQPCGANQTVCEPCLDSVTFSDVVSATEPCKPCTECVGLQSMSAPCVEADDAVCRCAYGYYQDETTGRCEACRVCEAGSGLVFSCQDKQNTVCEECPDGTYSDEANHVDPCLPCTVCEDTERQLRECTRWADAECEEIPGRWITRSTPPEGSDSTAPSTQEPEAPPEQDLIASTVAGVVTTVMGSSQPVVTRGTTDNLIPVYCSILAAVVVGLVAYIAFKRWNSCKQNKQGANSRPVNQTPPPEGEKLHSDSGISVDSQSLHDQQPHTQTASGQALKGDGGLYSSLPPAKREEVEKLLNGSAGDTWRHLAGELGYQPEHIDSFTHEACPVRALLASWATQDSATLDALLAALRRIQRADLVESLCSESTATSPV", "details": "Beglova et al, 2000; Saragovi et al, 2000, 2002; cited from earlier work", "note": "No end group written: not given here.", "data": [{"substance": "short cyclic peptide derived from an exposed loop of mature NGF (residues C30-C35): short cyclic peptide from an exposed loop of mature NGF, involved in NGF-p75NTR interactions (DIKGKE; also: cyclic peptide, ring closure not given here; UniProt P01139 151-156, looked up, fragment)", "values": [{"measurement": "Blocking of neurotrophin binding to p75NTR", "value": "specifically block"}]}]}
